The target of experiment [1] is T1, SARS-CoV-2 Spike protein-RBD-mFc (Acrobiosystem; SPD-C5259) (SARS-CoV-2; mouse, UniProt P0DTC2 319-541).
For experiment [2], the target named is epitope sequence SEQ ID No 21 ([…]) (SARS-CoV-2). Kind of experiment: RepliTope peptide microarray, Cy5 fluorescence.
Procedure: (§1) The peptide library consisted of 15-meric peptides representing overlapping peptide scans. […] Incubation took place for 1 hour at 30° C. Biotin-labeled secondary antibody (mouse-anti-camelid IgG) was added at 2 μg/mL and incubated for 1 hour. Detection was visualized using Cy5-labeled streptavidin at 0.1 μg/mL incubated for 1 hour. After washing and drying, the slides were scanned with a high-resolution laser scanner at 635 nm to obtain fluorescence intensity profiles. Resulting images were quantified to yield a mean pixel value for each peptide.
Experiment [3] has as its target epitope sequence SEQ ID No 25 ([…]) (SARS-CoV-2). Kind of experiment: RepliTope peptide microarray, Cy5 fluorescence.
Procedure: as §1
Experiment [4] addresses epitope sequence SEQ ID No 27 ([…]) (SARS-CoV-2). The experiment in a line: RepliTope peptide microarray, Cy5 fluorescence.
Procedure: as §1
Experiment [5] has as its target epitope sequence SEQ ID No 28 ([…]) (SARS-CoV-2). Kind of experiment: RepliTope peptide microarray, Cy5 fluorescence.
Procedure: as §1
The target of experiment [6] is epitope sequence SEQ ID No 29 ([…]) (SARS-CoV-2). Kind of experiment: RepliTope peptide microarray, Cy5 fluorescence.
Procedure: as §1
For experiment [7], the target named is epitope sequence SEQ ID No 30 ([…]) (SARS-CoV-2). The experiment in a line: RepliTope peptide microarray, Cy5 fluorescence.
Procedure: as §1
For experiment [8], the target named is epitope sequence SEQ ID No 36 ([…]) (SARS-CoV-2). The experiment in a line: RepliTope peptide microarray, Cy5 fluorescence.
Procedure: as §1
The target in experiment [9] is epitope sequence SEQ ID No 38 ([…]) (SARS-CoV-2). The experiment in a line: RepliTope peptide microarray, Cy5 fluorescence.
Procedure: as §1
Experiment [10] has as its target epitope sequence SEQ ID No 39 ([…]) (SARS-CoV-2). The experiment in a line: RepliTope peptide microarray, Cy5 fluorescence.
Procedure: as §1
In experiment [11] the target is T1, SARS-CoV-2 Spike protein-RBD-mFc …. Kind of experiment: SPR (Biacore T200), […], kinetic fit 1:1 binding, […]. On the technique in general: In SPR one partner is held on a chip, and binding of the other changes the refractive index at the surface.
Experiment [12] shares this target. Described as above. The source holds these as a separate data set.

This is an account of results in patent US20250271431A1 (NEW ERA MABS, published 2025).

Values joined by “and” are separate entries in the source; they are usually repeats but may differ in a detail not shown here. Identical values can stand only once. Like-named read-outs stand apart in the source and are kept apart here.

B1: hcAb B10 (clone B10), camelid full length IgG2 heavy chain only antibody (antibody, V domains shown)
VH: DVQLQESGGGLVQPGGSLRLSCAASGDINTIGTMNWFRQAPGKGREFVALITSGGTTNYADSVKGRFTVSRDNAKNTVYLQMNSLKPEDTAVYHCYGADHYSDYWGQGTQVTVSS
notes: also called mAb B10
Turning to B1, the Kd in experiment [1] is 390 pM; in experiment [11], 372 pM and 385 pM; in experiment [12], 397 pM. Further, the average signal intensity came to 48600 mean pixel value in [2]; 750 mean pixel value in [3]; 14000 mean pixel value in experiment [4]; 14000 mean pixel value in experiment [5]; 353 mean pixel value in [6]; 644 mean pixel value in experiment [7]. Besides, the average signal intensity in [8] was found to be 800 mean pixel value; in [9], 18100 mean pixel value; in experiment [10], 15200 mean pixel value. Besides, the koff was 0.000454 s⁻¹ and 0.000459 s⁻¹ in experiment [11]; 0.000463 s⁻¹ in [12]. Besides, the kon in [11] is 1.22e+06 M⁻¹ s⁻¹ and 1.19e+06 M⁻¹ s⁻¹; in experiment [12], 1.17e+06 M⁻¹ s⁻¹.

One may read the Kd as the concentration at which binding is half-saturated. As usually defined, the koff is a measure of how fast the partners let go of each other. Read a low koff as slow dissociation. In general, kon refers to the second-order rate constant of association. Low readings indicate slow association, high ones fast association.
